According to patent US20130039916A1 (Merck Sharp & Dohme, published 2013):
Substitutions are numbered along the chain they refer to. Names and notes keep the numbering of the source. Values joined by “and” are separate entries in the source; they are usually repeats but may differ in a detail not shown here. Identical values can stand only once.

B1: mouse anti-human IL-23p19 antibody 7G10 (antibody, V domains shown)
VH: EVQLQQSGPELVKPGASVKMSCKASGYTFTSNVMHWVKQKPGQGLEWIGYINPYNDGTKYNEKFKGKATLTSDKSSSTAYMELSSLTSEDSAVYYCARNWDVAYWGQGTLVTVSA
VL: DIVMTQSPATLSVTPGDRVSLSCRASQSISDYLHWYRQKSHESPRLLIKYASQSISGIPSRFSGSGSGSDFTLSINSVEPEDVGVYYCQNGHSFPFTFGSGTKLEIKR
B2: mouse anti-human IL-23p19 antibody 6H12 (antibody, V domains shown)
VH: B1 VH with Q3H, T30N, S31R, N32Y, V33L, M34I, Y54N, K59N, R98A, V102Q
VL: B1 VL with R37Q, A51T
notes: also called m6H12
B3: humanized anti-human IL-23p19 antibody 7G10 (antibody, human IgG1, kappa, V domains shown)
VH: QVQLVQSGAEVKKPGASVKVSCKASGYTFTSNVMHWVRQAPGQGLEWMGYINPYNDGTKYNEKFKGRVTMTTDTSTSTAYMELRSLRSDDTAVYYCARNWDVAYWGQGTLVTVSS
VL: DIQMTQSPSSLSASVGDRVTITCRASQSISDYLHWYQQKPGKAPKLLIYYASQSISGVPSRFSGSGSGTDFTLTISSLQPEDFATYYCQNGHSFPFTFGQGTKVEIKR
notes: Full-length humanized antibody, human IgG1 / kappa; also called hu7G10; hum7G10
B4: humanized anti-human IL-23p19 antibody 6H12 (antibody, human IgG1, kappa, V domains shown)
VH: B3 VH with T30N, S31R, N32Y, V33L, M34I, Y54N, D56A, K59N, V102Q
VL: B3 VL with A51T
notes: Full-length humanized antibody, human IgG1 / kappa; also called hu6H12; hum6H12
B5: mouse anti-human IL-23p19 antibody 13B5 (antibody, V domains shown)
VH: EVQLQQSGPELVKPGASVKMSCKASGYTFTRYLMHWVKQKPGQGLEWIGYINPYNDGTNYNEKFKGKATLTSDKSSSTAYMELSSLTSEDSAVYYCARNWDVGGYWGQGTTLTVSS
VL: B1 VL with R37Q
notes: also called m13B5
B6: mouse anti-human IL-23p19 antibody 33B12 (antibody, V domains shown)
VH: QVQLQQSGAELARPGASVKLSCKASGYTFTSYSLKWVKQRTGQGLEWIGEIHPRSGNTHYNEKFKGKATLTADKSSSTAYMDLRSLTSEDSAVYFCATNWDLGYWGQGTTITVSS
VL: B1 VL with M4L, Y36F, R37Q, K39R
notes: also called m33B12
B7: mouse anti-human IL-23p19 antibody 39G2 (antibody, V domains shown)
VH: QVQLQQPGAELVRPGASVKLSCKASGYSFTSSWMNWVKQRPGQGLEWIGMIHPSDSETRTNQKFKDKATLTVDKSSSTAYMQLSSPTSEDSAVYYCARGMITAPTVYWGQGTLVTVSA
VL: DIVLTQSPASLAVSLGQRATISCRASKSVSTSAYSYFHWYQQKPGQPPKLLIYLASNLESGVPARFSGSGSGTDFTLNIHPVEEEDAATYYCQHSRELPWTFGGGTKLEITP
notes: also called m39G2
B8: mouse anti-human IL-23p19 antibody 35F12 (antibody, V domains shown)
VH: B7 VH with V12M, K19R, S31T, T60L, K63N, K74R, S84N, T105S
VL: B7 VL with E85G, P112R
notes: also called m35F12
B9: mouse anti-human IL-23p19 antibody 3D7 (antibody, V domains shown)
VH: QVQLQQSGPELVKPGASVKISCKASGYSFTSYYIHWVKQRPGQGLEWIGWIFPGSGNTKYNEKFKGKATLTADTSSTTAYMQLSSLTSEASAVYFCAREGLHYFGLYAMDYWGHGTSVTVSS
VL: DIQMTQTTSSLSASLGDRVTISCSASQGISNYLNWFQQKPDGTVKLLIYYTSSLHSGVPSRFSGSGSGTDYSLTISNLEPEDIATYYCQQYSKLPYTFGGGTKLEIKR
notes: also called m3D7
B10: humanized antibody 17G8 with R98A substitution in the heavy chain of SEQ ID NO: 129 (antibody, V domains shown)
VH: QVQLVQSGAEVKKPGASVKVSCKASGYTFTSYGIKWVRQAPGQGLEWMGEIFPRSGQTIYNEKFKGRVTMTTDTSTSTAYMELRSLRSDDTAVYYCAANWDLDYWGQGTLVTVSS
VL: B3 VL with F96Y

Experiments:
[1] = target: T1, "Elastikine" human IL-23 (single chain FLAG-tag:GLU-tag:human p40:elasti-linker:human p19, expressed in 293T … (human, UniProt P29460 23-328)); assay: cell-based or functional assay
[2] = target: T2, "Non-linked" human IL-23 (human p40 coexpressed in 293T cells with human p19:FLAG-tag peptide) (human, UniProt P29460 23-328); assay: cell-based or functional assay
T2 sequence 1: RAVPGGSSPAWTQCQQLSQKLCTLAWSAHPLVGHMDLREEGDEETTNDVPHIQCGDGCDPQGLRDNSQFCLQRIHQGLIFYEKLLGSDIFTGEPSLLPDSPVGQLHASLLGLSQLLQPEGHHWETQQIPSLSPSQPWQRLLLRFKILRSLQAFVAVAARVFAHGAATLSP
T2 sequence 2: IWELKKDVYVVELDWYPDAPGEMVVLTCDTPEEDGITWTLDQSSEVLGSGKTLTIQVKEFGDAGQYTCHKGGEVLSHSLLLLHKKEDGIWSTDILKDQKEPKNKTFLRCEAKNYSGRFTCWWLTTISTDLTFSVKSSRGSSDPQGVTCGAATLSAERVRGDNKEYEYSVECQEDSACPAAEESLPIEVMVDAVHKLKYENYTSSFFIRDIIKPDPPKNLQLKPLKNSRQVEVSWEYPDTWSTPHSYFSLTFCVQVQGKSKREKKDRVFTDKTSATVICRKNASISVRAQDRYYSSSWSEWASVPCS

[3] = target: T3, non-tagged, non-linked native human IL-23p19/p40 coexpressed in SF9 cells (eBioscience CAT No. 34-8239) (human, UniProt P29460 23-328); assay: cell-based or functional assay
T3 sequence 1: T2 sequence 1
T3 sequence 2: T2 sequence 2

[4] = target: T1, "Elastikine" human IL-23 (single chain …); assay: KinExA, solution equilibrium
Method: (§1) The equilibrium dissociation constant (Kd) for anti human IL-23 antibodies is determined using the KinExA 3000 instrument. Sapidyne Instruments Inc., Boise Id., USA KinExA uses the principle of the Kinetic Exclusion Assay method based on measuring the concentration of uncomplexed antibody in a mixture of antibody, antigen and antibody-antigen complex. The concentration of free antibody is measured by exposing the mixture to a solid-phase immobilized antigen for a very brief period of time. In practice, this is accomplished by flowing the solution phase antigen-antibody mixture past antigen-coated particles trapped in a flow cell. Data generated by the instrument are analyzed using custom software. Equilibrium constants are calculated using a mathematical theory based on the following assumptions:
(§2) 98 micron PMMA particles (Sapidyne, Cat No. 440198) are coated with biotinylated rhIL-23 according to Sapidyne “Protocol for coating PMMA particles with biotinylated ligands having short or nonexistent linker arms”. To make biotinylated rhIL-23, EZ-link TFP PEO-biotin (Pierce, Cat. No. 21219) is used according to manufacturer's recommendations (Pierce bulletin 0874). Experimental procedures are done according to the KinExA 3000 manual.
(§3) KinExA experiments are performed essentially as described at Example 3 of U.S. Patent Application Publication No. 2007/0048315.

[5] = target: T2, "Non-linked" human IL-23 (human p40 …); assay: KinExA, solution equilibrium
Method: as §1, §2, §3

[6] = target: T3, non-tagged, non-linked native human …; assay: KinExA, solution equilibrium
Method: as §1, §2, §3

[7] = target: T4, "Elastikine" human IL-23 (single chain FLAG-tag:GLU-tag:human p40:elasti-linker:human p19, expressed in 293T … (human, UniProt P29460 23-328)); assay: cell-based or functional assay; remark: listed apart in the source
[8] = target: T3, non-tagged, non-linked native human …; assay: BIAcore SPR, antibody immobilised on CM5 chip, IL-23 in solution
Method: (§4) BIAcore determinations are performed essentially as described at Example 4 of U.S. Patent Application Publication No. 2007/0048315. Briefly, ligands (anti-IL-23 mAbs) are immobilized on a BIAcore CM5 sensor chip using standard amine-coupling procedure. IL-23 (various forms) is diluted in PBS to produce various concentrations. Kinetic constants for the various interactions are determined using BIAevaluation software 3.1. The Kd is determined using the calculated dissociation and association rate constants. In certain experiments, proteins are used at the following concentrations: anti-IL-23 mAb hu7G10 in PBS at 0.33 mg/mL; anti-IL-23 mAb hu6H12 in PBS at 0.2 mg/mL; bac-wt human IL-23 in PBS at 0.30 mg/mL; eBioscience human IL-23 in PBS at 0.10 mg/mL; N222Q human IL-23 in PBS at 0.33 mg/mL.

[9] = target: T4, "Elastikine" human IL-23 (single chain …); assay: KinExA, solution equilibrium
Method: as §1, §2, §3

[10] = target: T5, "N222Q" human IL-23 (elastikine sequence with Asn222 to Gln in the p40 subunit, expressed in SF9 cells) (human, UniProt P29460 23-328); assay: BIAcore SPR, antibody immobilised on CM5 chip, IL-23 in solution
T5 chain 1: T2 sequence 2 with N200Q
T5 chain 2: T2 sequence 1
Method: as §4

[11] = target: T6, human IL-23 (form not stated) (human, UniProt P29460 23-328); assay: cell-based or functional assay
T6 sequence 1: T2 sequence 1
T6 sequence 2: T2 sequence 2

Binder | IC50 (pM), blocking of Ba/F3 cell proliferation [1] | IC50 (pM), blocking of Ba/F3 cell proliferation [2] [pM] | IC50 (pM), blocking of Ba/F3 cell proliferation [3] | Kd [4] | Kd [5] [pM] | Kd [6] [pM] | IC50 (pM), blocking of Ba/F3 cell proliferation [7] [pM] | Kd [8] | Kd [9] | Kd [10] [pM] | fold decrease of IC50 in the Ba/F3 proliferation bioassay against the heavy chain of SEQ ID NO: 129 without R98A [11] [fold]
B1 | 22 pM and 18 pM | 3000 | – | – | – | – | – | – | – | – | –
B2 | 11 pM and 9 pM | 1500 | 1300 pM and 500 pM | 54 pM and 48 pM | > 1200 | > 1000 | – | – | – | – | –
B3 | – | 10000 | 7800 pM | – | – | – | 29 | 3200 pM and 9000 pM | – | – | –
B4 | – | 4000 | 3200 pM | – | – | – | 27 | 4100 pM | 28 pM and 36 pM | 500 | –
B5 | 7 pM and 5 pM | 113 | 31 pM | 22 pM | – | 55 | – | – | – | – | –
B6 | 4 pM and 3 pM | 193 | 57 pM | 6.8 pM | – | – | – | – | – | – | –
B7 | 9 pM and 5 pM | 67 | 11 pM | 19 pM | 34 | 620 | – | – | – | – | –
B8 | 15 pM and 5 pM | 73 | 12 pM | 53 pM | – | > 700 | – | – | – | – | –
B9 | 3 pM | 37 | 2 pM | 0.84 pM | – | – | – | – | – | – | –
B10 | – | – | – | – | – | – | – | – | – | – | > 1000
